Molecular target: HtpGMtb_C (C-terminal domain of HtpGMtb, wild type) (M. tuberculosis H37Rv)
Experiment: SEC-MALS

HtpGMtb_C (C-terminal domain of HtpGMtb, wild type) (domain or fragment), sequence (A1KKZ1 417-645 limits assumed): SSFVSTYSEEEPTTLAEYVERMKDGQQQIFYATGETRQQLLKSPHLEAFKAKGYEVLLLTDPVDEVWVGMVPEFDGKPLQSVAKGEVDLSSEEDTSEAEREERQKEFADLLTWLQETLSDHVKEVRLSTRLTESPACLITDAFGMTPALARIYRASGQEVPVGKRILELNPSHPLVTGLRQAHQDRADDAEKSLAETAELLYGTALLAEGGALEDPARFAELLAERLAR

For “HtpGMtb_C (C-terminal domain of HtpGMtb, wild type) (domain or fragment)”, the stoichiometry N was 2.

From paper PMC9403545, “Structure based design of effective HtpG-derived vaccine antigens against M. tuberculosis” (Frontiers in Molecular Biosciences, 2022)
